The values that follow come from publication PMC2752815.

Usually Kd stands for a measure of binding affinity in units of concentration. High values mean a looser complex, low ones a tighter complex. For orientation: stoichiometry N means a count of units in the complex or per binding partner.

The target of the experiment is mouse βB1-crystallin (mouse) (UniProt Q9WVJ5). In words: AUC.

In turn, “mouse βB1-crystallin (from UniProt Q9WVJ5 1-250) (natural protein)” came in with a Kd of 1.55 µM and a stoichiometry N of 2.
